{
  "source": "paper PMC5519978",
  "about": "(2017)",
  "binders": {"B1": {"name": "hBRM-B BRD (human BRM bromodomain, short splice isoform, residues 1379-1399 and 1418-1508) (domain or fragment)", "chain": "NPPKLTKQMNAIIDTVINYKDSSGRQLSEVFIQLPSRKELPEYYELIRKPVDFKKIKERIRNHKYRSLGDLEKDVMLLCHNAQTFNLEGSQIYEDSIVLQSVFKSARQKIAK", "modifications": "15N-labelled"}},
  "key": {"[1]": {"molecular_target": "B1", "assay": "NMR"}, "[2]": {"molecular_target": "T1, BRG1 AT-BRD (AT-hook and bromodomain of human BRG1, residues 1434-1569), wild type (human, UniProt P51532 1434-1569)", "T1 chain": "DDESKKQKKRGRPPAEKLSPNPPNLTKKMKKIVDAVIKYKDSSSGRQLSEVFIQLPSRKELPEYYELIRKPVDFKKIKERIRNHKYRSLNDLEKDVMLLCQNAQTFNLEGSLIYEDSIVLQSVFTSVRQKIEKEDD", "assay": "NMR"}, "[3]": {"molecular_target": "T2, hBRM-A AT-BRD (AT-hook and bromodomain of human BRM, long isoform, residues 1358-1508) (human, UniProt P51531 1358-1508, 15N-labelled)", "T2 chain": "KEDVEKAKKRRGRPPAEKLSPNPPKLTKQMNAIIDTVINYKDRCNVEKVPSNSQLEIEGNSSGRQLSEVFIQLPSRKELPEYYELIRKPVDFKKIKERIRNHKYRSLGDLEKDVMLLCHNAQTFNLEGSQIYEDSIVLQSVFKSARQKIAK", "assay": "NMR"}, "[4]": {"molecular_target": "T3, hBRM-A BRD (human BRM bromodomain, long splice isoform, residues 1379-1508) (human, UniProt P51531 1379-1508, 15N-labelled)", "T3 chain": "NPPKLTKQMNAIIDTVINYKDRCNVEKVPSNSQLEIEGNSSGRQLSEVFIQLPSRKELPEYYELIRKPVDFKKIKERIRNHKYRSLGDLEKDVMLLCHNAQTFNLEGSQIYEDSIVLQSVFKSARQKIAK", "assay": "NMR"}, "[5]": {"molecular_target": "T4, hBRM-B AT-BRD (AT-hook and bromodomain of human BRM, short isoform, residues 1358-1399 and 1418-1508) (human, UniProt P51531 1358-1399; P51531 1418-1508, 15N-labelled)", "T4 chain": "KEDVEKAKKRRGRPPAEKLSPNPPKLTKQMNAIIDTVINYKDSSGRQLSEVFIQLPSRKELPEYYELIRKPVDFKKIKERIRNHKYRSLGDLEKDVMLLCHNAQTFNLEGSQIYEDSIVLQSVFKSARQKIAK", "assay": "NMR"}, "[6]": {"molecular_target": "T4, hBRM-B AT-BRD (AT-hook and bromodomain …)", "assay": "NMR; pre-bound to DNAI"}, "[7]": {"molecular_target": "T4, hBRM-B AT-BRD (AT-hook and bromodomain …)", "assay": "NMR; Kd,obs, AT-BRD pre-bound to DNAI"}, "H3(23-34)": {"molecular_target": "H3(23-34)", "assay": "NMR"}},
  "note": "No end group written: not given here.",
  "data": [
    {"binder": "QTARKSTGGKAPRKQLATK", "note": "[H3(5-23) histone peptide, unmodified]", "values": [
      {"measurement": "Kd", "setting": "[1]", "result": "> 7000", "unit": "µM"}
    ]},
    {"binder": "KAARK(Ac)SAPATGG", "note": "[H3(23-34)K27ac histone peptide]", "values": [
      {"measurement": "Kd", "setting": "[2]", "result": "> 3000", "unit": "µM"},
      {"measurement": "Kd", "setting": "[3]", "result": "> 35000", "unit": "µM"},
      {"measurement": "Kd", "setting": "[1]", "result": "> 7000", "unit": "µM"}
    ]},
    {"binder": "KSTGGK(Ac)APRKQ", "note": "[H3(9-19)K14ac histone peptide]", "values": [
      {"measurement": "Kd", "setting": "[2]", "result": 940, "unit": "µM"},
      {"measurement": "Kd", "setting": "[3]", "result": 810, "unit": "µM"},
      {"measurement": "Kd", "setting": "[4]", "result": 880, "unit": "µM"},
      {"measurement": "Kd", "setting": "[5]", "result": 760, "unit": "µM"},
      {"measurement": "Kd", "setting": "[6]", "result": 1120, "unit": "µM"},
      {"measurement": "Kd", "setting": "[7]", "result": 1120, "unit": "µM"}
    ]},
    {"binder": "B1", "values": [
      {"measurement": "Kd", "setting": "H3(23-34)", "result": "> 16000", "unit": "µM"}
    ]},
    {"binder": "AKRHRK(Ac)VLRDN", "note": "[H4(15-25)K20ac histone peptide]", "values": [
      {"measurement": "Kd", "setting": "[1]", "result": 2400, "unit": "µM"}
    ]},
    {"binder": "KQLATK(Ac)AARKS", "note": "[H3(18-28)K23ac histone peptide]", "values": [
      {"measurement": "Kd", "setting": "[1]", "result": 3500, "unit": "µM"}
    ]}
  ]
}
